Here are results for two molecules from article PMC4840364 (Scientific Reports, 2016).

This test deals with T1, glycoprotein Ibα (GPIbα) on human platelets (Homo sapiens, UniProt P07359).
T1 construct: human platelet glycoprotein Ibα, endogenous on platelets; On platelets GPIbα stands in the GPIb-IX complex with GPIbβ and GPIX; also called full length GPIbα expressed on the cell surface; source: endogenous, on human platelets
Nature of the test: flow cytometry on cells; human platelets (1.5 x 10^6 cells/well) incubated with Fab fragments at room temperature for 20 min, FITC-conjugated goat anti-mouse IgG, MFI of 10,000 cells. The settings on record: one partner purified. In general terms: A flow cytometer gives signals particle by particle.

B1: wild-type 5G6 Fab fragment (recombinant) (Fab, V domains shown)
VH: QVTLKESGPGILQPSQTLSLTCSFSGFSLSTSNMGVVWIRQPSGKGLEWLLHILWNDGKFYNPALKSRLTISKDTYNNQVFLKIANVDTADTATYYCARLFTTTTSGYFDVWGAGTTVTVSS
VL: DIQMTQSPASLSASVGETVTITCRASGNIYNYLAWYQQKQGKSPQLLVYNAKTLADGVPSRFSGSGSGTQYSLKINSLQPEDFGSYFCQHFWDTPWTFGGGTKLEIK
notes: heavy chain of 5G6 Fab, as the heavy chain of m1; light chain of 5G6 Fab, as the light chain of m1; cDNA of both chains cloned from 5G6 hybridoma mRNA into pcDNA3.1 with a C-terminal 6xHis tag; also called 5G6-WT; source: CHO cells, transiently cotransfected, purified from medium (Ni-NTA, Superdex 200)
In the case of B1, the binding result was “binds”.

B2: mutant 5G6 Fab 5G6-M2 (Fab, V domains shown)
VH: QVTLKESGPGILQPSQTLSLTCSFSGFSLSTSNMGVVWIRQPSGKGLEWLLHILWNDGKFYNPALKSRLTISKDTYNNQVFLKIANVDTADTATYYCARLFAAAASGYFDVWGAGTTVTVSS
VL: DIQMTQSPASLSASVGETVTITCRASGNIYNYLAWYQQKQGKSPQLLVYNAKTLADGVPSRFSGSGSGTQYSLKINSLQPEDFGSYFCQHFWATPWTFGGGTKLEIK
notes: as the heavy chain of m2 with Thr102-105 of CDRH3 replaced with Ala; as the light chain of m2 with Asp93 of CDRL3 replaced with Ala; five point mutations in the interface
With B2, the binding result was “no binding”.
